Test results published in paper PMC1635730.

Tests used:
[1] = target: recombinant mesothelin expressed on human epidermoid epithelial A431 cells (human) (UniProt Q13421)
[2] = target: recombinant mesothelin expressed on human epidermoid epithelial A431 cells (human) (UniProt Q13421); remark: listed apart in the source
[3] = target: recombinant mesothelin tagged with the Fc fragment of rabbit IgG (human) (UniProt Q13421); assay: flow cytometry on cells; inhibition: soluble MUC16 pre-incubated with meso-Fc (25 nM) for 1 h at 4°C; read out as meso-Fc left to bind OVCAR-3 cells
Sequence of recombinant mesothelin tagged with the Fc fragment of rabbit IgG (human) (Q13421 other isoform, or with tags, fused parts or gaps): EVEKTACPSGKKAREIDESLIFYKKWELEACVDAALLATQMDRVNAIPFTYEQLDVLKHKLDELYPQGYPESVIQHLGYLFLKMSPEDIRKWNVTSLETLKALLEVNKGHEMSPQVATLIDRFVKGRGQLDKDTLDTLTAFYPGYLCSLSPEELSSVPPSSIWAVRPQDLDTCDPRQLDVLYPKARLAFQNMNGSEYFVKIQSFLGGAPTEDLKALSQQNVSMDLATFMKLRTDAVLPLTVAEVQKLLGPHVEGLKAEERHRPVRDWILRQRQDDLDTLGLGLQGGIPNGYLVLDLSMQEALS

Sequence of recombinant mesothelin expressed on human epidermoid epithelial A431 cells (human) (Q13421 other isoform, or with tags, fused parts or gaps): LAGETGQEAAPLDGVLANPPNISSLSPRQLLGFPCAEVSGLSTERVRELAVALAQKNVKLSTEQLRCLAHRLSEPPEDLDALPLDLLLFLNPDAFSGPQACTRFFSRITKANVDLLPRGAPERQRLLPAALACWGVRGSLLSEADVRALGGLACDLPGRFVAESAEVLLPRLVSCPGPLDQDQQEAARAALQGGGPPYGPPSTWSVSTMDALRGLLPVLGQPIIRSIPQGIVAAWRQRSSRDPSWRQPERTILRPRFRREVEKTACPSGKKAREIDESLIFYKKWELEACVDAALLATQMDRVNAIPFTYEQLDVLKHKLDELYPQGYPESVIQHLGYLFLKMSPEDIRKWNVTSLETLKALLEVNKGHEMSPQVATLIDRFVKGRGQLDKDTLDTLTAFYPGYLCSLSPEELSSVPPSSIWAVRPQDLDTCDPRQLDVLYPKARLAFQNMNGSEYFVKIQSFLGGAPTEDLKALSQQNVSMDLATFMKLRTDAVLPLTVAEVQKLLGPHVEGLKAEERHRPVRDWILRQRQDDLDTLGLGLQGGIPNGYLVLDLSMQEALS

Row | Substance | heterotypic doublets between MUC16 positive #12 cells and A431-Meso+ cells in PBS with 1% BSA, percent of total live cells, flow cytometry [1] | reduction of heterotypic cell adhesion between #12 and A431-Meso+ cells by ascites of EOC patients (#15 and #24), flow cytometry [2] | percent inhibition of meso-Fc binding to OVCAR-3 cells (MUC16 at half the molar amount of meso-Fc) [3]
1 | MUC16 expressed on the surface of the ovarian tumor cell line OVCAR-3, Q8WXI7 1-14507 | 25% | 33% | –
2 | native MUC16 partially purified from OVCAR-3 cell culture media, Q8WXI7 1-14451 | – | – | 80%
